Assay results: publication PMC3150277, “Crystal Structure of PrgI-SipD: Insight into a Secretion Competent State of the Type Three Secretion System Needle Tip and its Interaction with Host Ligands” (PLoS Pathogens, 2011)

Target: T1, SipD 127-343, as it stands in the PrgI-SipDΔD1 fusion protein (S. enterica serovar typhimurium strain …, UniProt Q56026 127-343)
T1 construct: SipD of S. enterica serovar typhimurium strain SL1344, amino acids 127 to 343; In the crystal it is joined on one chain, C-terminal of PrgI and the linker Gly-Gly-Ser-Gly-Gly; also called SipDΔD1 (in the fusion); source: E. coli BL21(DE3), purified as part of the PrgI-SipDΔD1 fusion protein
T1 sequence: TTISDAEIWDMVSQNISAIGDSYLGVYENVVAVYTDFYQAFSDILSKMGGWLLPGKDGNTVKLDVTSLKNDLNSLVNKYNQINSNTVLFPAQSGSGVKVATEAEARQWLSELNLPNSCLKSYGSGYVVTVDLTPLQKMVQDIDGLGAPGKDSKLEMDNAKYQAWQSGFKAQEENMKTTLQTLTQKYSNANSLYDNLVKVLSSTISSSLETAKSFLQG
Assay: crystal structure; PrgI-SipDΔD1 fusion protein, X-ray, 2.4 Å apo and 2.19 Å soaked with deoxycholate; two copies in the asymmetric unit
Settings: both partners purified

B1: PrgI, wildtype, as it stands in the PrgI-SipDΔD1 fusion protein (natural protein)
chain: MATPWSGYLDDVSAKFDTGVDNLQTQVTEALDKLAAKPSDPALLAAYQSKLSEYNLYRNAQSNTVKVFKDIDAAIIQNFR
notes: wildtype PrgI of S. enterica serovar typhimurium strain SL1344; In the crystal it is joined on one chain through Gly-Gly-Ser-Gly-Gly to SipD 127-343; also called needle subunit PrgI; source: E. coli BL21(DE3), purified as part of the PrgI-SipDΔD1 fusion protein; not shown: His-tag, N-terminal, cleaved
Question: Does B1 bind?
Answer: binds
